Assay results reported in US20060110789.

Key:
[1] = target: T1, (5)M3+TE (module 3 of DEBS with the N-terminal linker of module 5, fused to thioesterase), Q03132
T1 chain: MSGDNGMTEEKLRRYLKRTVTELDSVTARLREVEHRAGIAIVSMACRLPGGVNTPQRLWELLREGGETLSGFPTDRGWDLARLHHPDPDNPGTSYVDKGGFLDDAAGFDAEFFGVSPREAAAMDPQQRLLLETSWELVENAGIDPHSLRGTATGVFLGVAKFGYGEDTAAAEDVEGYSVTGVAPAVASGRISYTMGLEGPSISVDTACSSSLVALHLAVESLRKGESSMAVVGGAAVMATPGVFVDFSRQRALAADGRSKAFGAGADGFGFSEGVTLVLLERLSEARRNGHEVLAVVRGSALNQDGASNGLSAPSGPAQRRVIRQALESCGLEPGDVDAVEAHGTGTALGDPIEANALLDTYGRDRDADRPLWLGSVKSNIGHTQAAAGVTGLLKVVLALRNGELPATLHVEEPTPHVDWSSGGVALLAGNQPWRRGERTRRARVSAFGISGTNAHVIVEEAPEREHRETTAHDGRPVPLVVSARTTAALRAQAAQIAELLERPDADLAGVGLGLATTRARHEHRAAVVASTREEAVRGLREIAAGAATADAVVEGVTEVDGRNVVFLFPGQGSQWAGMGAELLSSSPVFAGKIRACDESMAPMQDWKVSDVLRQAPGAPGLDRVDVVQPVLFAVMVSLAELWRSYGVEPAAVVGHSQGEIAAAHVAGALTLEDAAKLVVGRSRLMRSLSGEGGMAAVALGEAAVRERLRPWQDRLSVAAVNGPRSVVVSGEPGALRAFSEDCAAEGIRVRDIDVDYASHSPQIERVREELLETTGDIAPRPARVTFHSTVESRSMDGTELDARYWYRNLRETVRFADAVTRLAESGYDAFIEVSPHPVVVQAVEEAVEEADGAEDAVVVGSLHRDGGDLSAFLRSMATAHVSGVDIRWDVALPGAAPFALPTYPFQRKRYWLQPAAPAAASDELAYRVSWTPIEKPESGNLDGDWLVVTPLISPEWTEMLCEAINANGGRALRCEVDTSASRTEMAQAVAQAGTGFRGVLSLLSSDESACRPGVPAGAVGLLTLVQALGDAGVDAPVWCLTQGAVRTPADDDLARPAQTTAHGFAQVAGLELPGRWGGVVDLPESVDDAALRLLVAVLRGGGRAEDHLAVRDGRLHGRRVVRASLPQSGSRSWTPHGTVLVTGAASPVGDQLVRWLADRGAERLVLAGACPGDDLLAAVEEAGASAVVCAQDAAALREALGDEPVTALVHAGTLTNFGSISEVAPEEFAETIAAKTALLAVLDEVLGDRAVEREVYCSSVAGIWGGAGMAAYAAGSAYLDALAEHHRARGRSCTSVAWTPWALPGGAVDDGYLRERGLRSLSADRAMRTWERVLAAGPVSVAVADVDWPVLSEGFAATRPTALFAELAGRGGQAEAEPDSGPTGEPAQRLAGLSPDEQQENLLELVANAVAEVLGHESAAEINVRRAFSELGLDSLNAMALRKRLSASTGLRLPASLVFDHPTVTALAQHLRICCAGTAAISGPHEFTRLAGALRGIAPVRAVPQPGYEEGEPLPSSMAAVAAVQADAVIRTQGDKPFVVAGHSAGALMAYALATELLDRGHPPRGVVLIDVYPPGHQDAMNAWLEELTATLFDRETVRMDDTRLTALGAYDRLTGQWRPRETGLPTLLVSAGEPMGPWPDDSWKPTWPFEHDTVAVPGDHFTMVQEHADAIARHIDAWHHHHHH

[2] = target: T2, M3+TE (module 3 of DEBS with its own N-terminal linker, fused to thioesterase), Q03132
T2 chain: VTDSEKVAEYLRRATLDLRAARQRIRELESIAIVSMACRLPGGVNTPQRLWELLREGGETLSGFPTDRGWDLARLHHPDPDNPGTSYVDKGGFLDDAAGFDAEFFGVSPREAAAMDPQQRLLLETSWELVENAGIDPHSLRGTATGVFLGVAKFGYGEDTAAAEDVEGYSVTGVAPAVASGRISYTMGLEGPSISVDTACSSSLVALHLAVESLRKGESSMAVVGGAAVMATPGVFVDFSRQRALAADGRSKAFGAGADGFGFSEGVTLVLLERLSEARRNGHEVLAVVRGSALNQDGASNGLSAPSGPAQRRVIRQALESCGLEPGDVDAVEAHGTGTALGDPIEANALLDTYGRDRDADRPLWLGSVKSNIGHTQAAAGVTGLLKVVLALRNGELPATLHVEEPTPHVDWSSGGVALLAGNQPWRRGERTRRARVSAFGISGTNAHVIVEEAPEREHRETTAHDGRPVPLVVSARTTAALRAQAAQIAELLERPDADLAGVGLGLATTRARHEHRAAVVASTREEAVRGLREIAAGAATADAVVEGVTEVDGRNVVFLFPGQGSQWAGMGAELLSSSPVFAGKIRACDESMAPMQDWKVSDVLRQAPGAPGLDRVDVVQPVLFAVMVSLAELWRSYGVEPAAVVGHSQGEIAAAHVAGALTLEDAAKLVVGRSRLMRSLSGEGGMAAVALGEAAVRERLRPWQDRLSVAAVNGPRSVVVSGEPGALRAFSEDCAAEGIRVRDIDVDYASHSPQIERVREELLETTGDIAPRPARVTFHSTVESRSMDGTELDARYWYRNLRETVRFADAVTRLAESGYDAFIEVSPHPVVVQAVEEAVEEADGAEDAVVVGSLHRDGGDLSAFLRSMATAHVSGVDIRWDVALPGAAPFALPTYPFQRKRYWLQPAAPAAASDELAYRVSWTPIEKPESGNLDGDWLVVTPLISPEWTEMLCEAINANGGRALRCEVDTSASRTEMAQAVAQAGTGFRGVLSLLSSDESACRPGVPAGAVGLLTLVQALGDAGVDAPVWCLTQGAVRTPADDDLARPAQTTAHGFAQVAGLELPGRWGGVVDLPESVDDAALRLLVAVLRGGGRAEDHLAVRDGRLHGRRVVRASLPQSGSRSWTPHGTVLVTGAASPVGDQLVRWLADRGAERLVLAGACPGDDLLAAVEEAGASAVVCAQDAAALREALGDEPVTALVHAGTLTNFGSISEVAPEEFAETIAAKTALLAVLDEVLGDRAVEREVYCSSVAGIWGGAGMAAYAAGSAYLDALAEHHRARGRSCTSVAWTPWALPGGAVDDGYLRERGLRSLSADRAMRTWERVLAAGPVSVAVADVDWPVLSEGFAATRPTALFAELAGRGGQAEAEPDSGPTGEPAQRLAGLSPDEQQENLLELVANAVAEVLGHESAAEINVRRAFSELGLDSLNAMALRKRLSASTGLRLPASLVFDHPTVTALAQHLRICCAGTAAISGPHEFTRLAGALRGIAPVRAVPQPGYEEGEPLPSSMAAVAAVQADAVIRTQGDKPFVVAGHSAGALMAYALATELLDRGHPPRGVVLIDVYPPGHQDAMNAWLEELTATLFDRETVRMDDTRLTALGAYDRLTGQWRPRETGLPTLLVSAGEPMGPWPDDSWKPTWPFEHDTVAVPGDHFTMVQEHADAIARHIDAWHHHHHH

B1: M2(4) (module 2 of DEBS with the C-terminal linker of module 4) (protein)
chain: MSGDNGMTEEKLRRYLKRTVTELDSVTARLREVEHRAGIAIVGMACRLPGEVDSPERLWELITSGRDSAAEVPDDRGWVPDELMASDAAGTRAHGNFMAGAGDFDAAFFGISPREALAMDPQQRQALETTWEALESAGIPPETLRGSDTGVFVGMSHQGYATGRPRPEDGVDGYLLTGNTASVASGRIAYVLGLEGPALTVDTACSSSLVALHTACGSLRDGDCGLAVAGGVSVMAGPEVFTEFSRQGALSPDGRCKPFSDEADGFGLGEGSAFVVLQRLSDARREGRRVLGVVAGSAVNQDGASNGLSAPSGVAQQRVIRRAWARAGITGADVAVVEAHGTGTRLGDPVEASALLATYGKSRGSSGPVLLGSVKSNIGHAQAAAGVAGVIKVLLGLERGVVPPMLCRGERSGLIDWSSGEIELADGVREWSPAADGVRRAGVSAFGVSGTNAHVIIAEPPEPEPVPQPRRMLPATGVVPVVLSARTGAALRAQAGRLADHLAAHPGIAPADVSWTMARARQHFEERAAVLAADTAEAVHRLRAVADGAVVPGVVTGSASDGGSVFVFPGQGAQWEGMARELLPVPVFAESIAECDAVLSEVAGFSVSEVLEPRPDAPSLERVDVVQPVLFAVMVSLARLWRACGAVPSAVIGHSQGEIAAAVVAGALSLEDGMRVVARRSRAVRAVAGRGSMLSVRGGRSDVEKLLADDSWTGRLEVAAVNGPDAVVVAGDAQAAREFLEYCEGVGIRARAIPVDYASHTAHVEPVRDELVQALAGITPRRAEVPFFSTLTGDFLDGTELDAGYWYRNLRHPVEFHSAVQALTDQGYATFIEVSPHPVLASSVQETLDDAESDAAVLGTLERDAGDADRFLTALADAHTRGVAVDWEAVLGRAGLVDLPGYPFQGKRFWLLPDRTTPRDELDGWFYRVDWTEVPRSEPAALRGRWLVVVPEGHEEDGWTVEVRSALAEAGAEPEVTRGVGGLVGDCAGVVSLLALEGDGAVQTLVLVRELDAEGIDAPLWTVTFGAVDAGSPVARPDQAKLWGLGQVASLERGPRWTGLVDLPHMPDPELRGRLTAVLAGSEDQVAVRADAVRARRLSPAHVTATSEYAVPGGTILVTGGTAGLGAEVARWLAGRGAEHLALVSRRGPDTEGVGDLTAELTRLGARVSVHACDVSSREPVRELVHGLIEQGDVVRGVVHAAGLPQQVAINDMDEAAFDEVVAAKAGGAVHLDELCSDAELFLLFSSGAGVWGSARQGAYAAGNAFLDAFARHRRGRGLPATSVAWGLWAAGGMTGDEEAVSFLRERGVRAMPVPRALAALDRVLASGETAVVVTDVDWPAFAESYTAARPRPLLDRIVTTAPSERAGEPETESLRDRLAGLPRAERTAELVRLVRTSTATVLGHDDPKAVRATTPFKELGFDSLAAVRLRNLLNAATGLRLPSTLVFDHPNASAVAGFLDFAASPAVDIGDRLDELEKALEALSAEDGHDDVGQRLESLLRRWNSRRADAPSTSAISEDASDDELFSMLDQRFGGGEDL
KM, fold increase against the natural linker pair (M2 with M3+TE) [1]: the increase in KM value upon swapping in the alternate linker pair is a more modest 2-fold | kcat of tetraketide lactone 2 synthesis [1]: kcat of 0.74±0.06 min^-1 | highest rate constant of tetraketide lactone 2 formation (mismatched linkers) [2]: in the range of 0.02-0.03 min^-1
